Data published in the supplement of paper PMC10567573.

B1: PLD5 (parent)
chain: KRTYWPDLDAKIREALVLRSVRVR
B2: EFHC1 (parent)
chain: NIYYYLEDDSMSVIEPVVENSGIL

Variants of: B1
Assay: protein stability index of a GFP-peptide fusion (GPS, HEK-293T) (PSI 1-6); higher = more stable
Settings: c terminus: a fixed tail appended
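Further: lentivirally expressed fusions sorted by FACS into six bins by GFP to DsRed ratio, PSI derived from sequencing read proportions per bin multiplied by bin number.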

Point of comparison: KRTYNPDLDAKIREALVLRSVRVR [W5N], protein stability index 1.96. Against it:
- ERTYWPDLDAKIREALVLRSVRVR [K1E] — higher, 2.58
- YRTYWPDLDAKIREALVLRSVRVR [K1Y] — lower, 1.05
- SRTYWPDLDAKIREALVLRSVRVR [K1S] — lower, 1.84
- LRTYWPDLDAKIREALVLRSVRVR [K1L] — lower, 1.6
- HRTYWPDLDAKIREALVLRSVRVR [K1H] — higher, 2.25
- CRTYWPDLDAKIREALVLRSVRVR [K1C] — lower, 1.46
- NRTYWPDLDAKIREALVLRSVRVR [K1N] — higher, 2.21
- PRTYWPDLDAKIREALVLRSVRVR [K1P] — lower, 1.79
- MRTYWPDLDAKIREALVLRSVRVR [K1M] — lower, 1.79
- DRTYWPDLDAKIREALVLRSVRVR [K1D] — higher, 2.06
- GRTYWPDLDAKIREALVLRSVRVR [K1G] — higher, 2.53
- RRTYWPDLDAKIREALVLRSVRVR [K1R] — lower, 1.92
- TRTYWPDLDAKIREALVLRSVRVR [K1T] — lower, 1.93
- FRTYWPDLDAKIREALVLRSVRVR [K1F] — higher, 2.55
- KRTYEPDLDAKIREALVLRSVRVR [W5E] — higher, 2.79
- KRTYKPDLDAKIREALVLRSVRVR [W5K] — higher, 2.01
- KRTYQPDLDAKIREALVLRSVRVR [W5Q] — higher, 2.15
- KRTYIPDLDAKIREALVLRSVRVR [W5I] — higher, 3.62
- KRTYAPDLDAKIREALVLRSVRVR [W5A] — lower, 1.86
- KRTYSPDLDAKIREALVLRSVRVR [W5S] — higher, 2.66
- KRTYDPDLDAKIREALVLRSVRVR [W5D] — lower, 1.73
- KRTYCPDLDAKIREALVLRSVRVR [W5C] — lower, 1.5
- KRTYHPDLDAKIREALVLRSVRVR [W5H] — higher, 2.9
- KRTYRPDLDAKIREALVLRSVRVR [W5R] — higher, 2.1
- KRIYWPDLDAKIREALVLRSVRVR [T3I] — lower, 1.46
- KREYWPDLDAKIREALVLRSVRVR [T3E] — lower, 1.28
- KRSYWPDLDAKIREALVLRSVRVR [T3S] — lower, 1.6
- KRQYWPDLDAKIREALVLRSVRVR [T3Q] — higher, 2.91
- KRLYWPDLDAKIREALVLRSVRVR [T3L] — higher, 2.83
- KRAYWPDLDAKIREALVLRSVRVR [T3A] — lower, 1.78
- KRWYWPDLDAKIREALVLRSVRVR [T3W] — lower, 1.12
- KETYWPDLDAKIREALVLRSVRVR [R2E] — higher, 2.14
- KTTYWPDLDAKIREALVLRSVRVR [R2T] — higher, 2.63
- KNTYWPDLDAKIREALVLRSVRVR [R2N] — higher, 2.14
- KHTYWPDLDAKIREALVLRSVRVR [R2H] — lower, 1.54
- KMTYWPDLDAKIREALVLRSVRVR [R2M] — lower, 1.77
- KKTYWPDLDAKIREALVLRSVRVR [R2K] — higher, 2.56
- KVTYWPDLDAKIREALVLRSVRVR [R2V] — higher, 2.43
- KQTYWPDLDAKIREALVLRSVRVR [R2Q] — higher, 2.31
- KWTYWPDLDAKIREALVLRSVRVR [R2W] — lower, 1.32
- KPTYWPDLDAKIREALVLRSVRVR [R2P] — higher, 2.7
- KFTYWPDLDAKIREALVLRSVRVR [R2F] — higher, 2.92
- KYTYWPDLDAKIREALVLRSVRVR [R2Y] — lower, 1.09
- KRTTWPDLDAKIREALVLRSVRVR [Y4T] — lower, 1.82
- KRTVWPDLDAKIREALVLRSVRVR [Y4V] — higher, 3.54
- KRTDWPDLDAKIREALVLRSVRVR [Y4D] — higher, 2.75
- KRTQWPDLDAKIREALVLRSVRVR [Y4Q] — lower, 1.93
- KRTGWPDLDAKIREALVLRSVRVR [Y4G] — higher, 2.01
- KRTWWPDLDAKIREALVLRSVRVR [Y4W] — lower, 1.75
- KRTKWPDLDAKIREALVLRSVRVR [Y4K] — lower, 1.48
- KRTPWPDLDAKIREALVLRSVRVR [Y4P] — lower, 1.9
- KRTIWPDLDAKIREALVLRSVRVR [Y4I] — the same, 1.96
- KRTEWPDLDAKIREALVLRSVRVR [Y4E] — higher, 2.69
- KRTCWPDLDAKIREALVLRSVRVR [Y4C] — lower, 1.85
- KRTLWPDLDAKIREALVLRSVRVR [Y4L] — higher, 2.27
- KRTFWPDLDAKIREALVLRSVRVR [Y4F] — lower, 1.41
- KRTAWPDLDAKIREALVLRSVRVR [Y4A] — lower, 1.17
- KRTSWPDLDAKIREALVLRSVRVR [Y4S] — lower, 1.67
- KRTHWPDLDAKIREALVLRSVRVR [Y4H] — higher, 2.25

Variants of: B2
Assay: as above
Settings: c terminus: a fixed tail appended

Point of comparison: NIYYYLEDDSMSVIEPVVENSGIH [L24H], protein stability index 2.31. Against it:
- NIYYYLEDDSMSVIEPVVENSGIW [L24W] — lower, 1.4
- NIYYYLEDDSMSVIEPVVENSGII [L24I] — higher, 3.15
- NIYYYLEDDSMSVIEPVVENSGIR [L24R] — higher, 2.46
- NIYYYLEDDSMSVIEPVVENSGIS [L24S] — higher, 2.58
- NIYYYLEDDSMSVIEPVVENSGIP [L24P] — higher, 2.41
- NIYYYLEDDSMSVIEPVVENSGIY [L24Y] — the same, 2.31
- NIYYYLEDDSMSVIEPVVENSGIN [L24N] — higher, 2.48
- NIYYYLEDDSMSVIEPVVENSGIA [L24A] — lower, 2.08
- NIYYYLEDDSMSVIEPVVENSGIQ [L24Q] — higher, 2.36
- NIYYYLEDDSMSVIEPVVENSGID [L24D] — higher, 2.48
- NIYYYLEDDSMSVIEPVVENSGIC [L24C] — lower, 2.02
- NIYYYLEDDSMSVIEPVVENSGIF [L24F] — lower, 2.12
- NIYYYLEDDSMSVIEPVVENSGIG [L24G] — higher, 2.47
- NIYYYLEDDSMSVIEPVVENSGIV [L24V] — lower, 2.21
- NIYYYLEDDSMSVIEPVVENSGIM [L24M] — lower, 2.02
- NIYYYLEDDSMSVIEPVVENSGDL [I23D] — higher, 2.81
- NIYYYLEDDSMSVIEPVVENSGQL [I23Q] — higher, 2.78
- NIYYYLEDDSMSVIEPVVENSGRL [I23R] — lower, 1.99
- NIYYYLEDDSMSVIEPVVENSGGL [I23G] — lower, 2.14
- NIYYYLEDDSMSVIEPVVENSGPL [I23P] — higher, 2.42
- NIYYYLEDDSMSVIEPVVENSGYL [I23Y] — higher, 2.51
- NIYYYLEDDSMSVIEPVVENSGAL [I23A] — higher, 2.82
- NIYYYLEDDSMSVIEPVVENSGNL [I23N] — higher, 2.71
- NIYYYLEDDSMSVIEPVVENSGFL [I23F] — lower, 1.2
- NIYYYLEDDSMSVIEPVVENSGWL [I23W] — higher, 2.47
- NIYYYLEDDSMSVIEPVVENSGTL [I23T] — higher, 3.04
- NIYYYLEDDSMSVIEPVVENSGCL [I23C] — lower, 2.12
- NIYYYLEDDSMSVIEPVVENSGHL [I23H] — higher, 2.43
- NIYYYLEDDSMSVIEPVVENSGVL [I23V] — lower, 1.8
- NIYYYLEDDSMSVIEPVVENSGKL [I23K] — higher, 2.53
- NIYYYLEDDSMSVIEPVVENSGEL [I23E] — higher, 3.12
- NIYYYLEDDSMSVIEPVVENSYIL [G22Y] — lower, 1.5
- NIYYYLEDDSMSVIEPVVENSVIL [G22V] — higher, 2.43
